Laboratory results: PMC7214462

Columns and labels:
[1] = tested on: LdCsm effector complex, wild type (Csm1/Cas10-Csm2-Csm3-Csm4-Csm5) (Lactobacillus delbrueckii subsp. bulgaricus ND04); experiment: EMSA; details: 5 nM 5'-32P S10-60 ssDNA in cleavage buffer (composition not in material; cOA assay buffer is 50 mM Tris-Cl pH 6.8 …)
[2] = tested on: LdCsm Csm3D34A (Lactobacillus delbrueckii subsp. bulgaricus ND04); experiment: EMSA; details: 100 nM effector, 500 nM PTR; 5 nM 5'-32P S10-60 ssDNA in cleavage buffer (composition not in material; cOA assay buffer is 50 mM Tris-Cl pH 6.8 …)

“ACTATAGGGAGAATAGAATGCCCCCATTATACAATATCTACGTTTTAGATGACCCCCCCC / ACGAGAACUUCAAAGCUUAGAUACCCUGGAGG / GGUGUUAAGUCUGGUUUCCCUCCAGGGUAUCUAAGCUUUGAAAAAAAA [S10-60 ssDNA + S1 crRNA + CTR+6]” gave a binding signal (fraction of CTR+6 complex) ([1]; 100 nM LdCsm, 500 nM CTR+6, reference) of 1.
For “ACTATAGGGAGAATAGAATGCCCCCATTATACAATATCTACGTTTTAGATGACCCCCCCC / ACGAGAACUUCAAAGCUUAGAUACCCUGGAGG / AUAGAAUGCCCCCAUUAUACAAUAUCUACGUUUUAGAUGAAAAAAA [S10-60 ssDNA + S1 crRNA + S10 RNA (non-homologous)]”, the binding signal (relative to WT with non-homologous RNA) ([1]; 100 nM LdCsm, 400 nM S10 RNA, little binding, reference) was 1.
In the case of “ACTATAGGGAGAATAGAATGCCCCCATTATACAATATCTACGTTTTAGATGACCCCCCCC / ACGAGAACUUCAAAGCUUAGAUACCCUGGAGG / UGUUAAGUCUGGUUUCCCUCCAGGGUAUCUAAGCUUUGAAAAAAAA [S10-60 ssDNA + S1 crRNA + CTR (S1-46)]”, the binding signal ([1]; 25-100 nM effector, 500 nM CTR, reference) was 100 % of WT.
With “ACTATAGGGAGAATAGAATGCCCCCATTATACAATATCTACGTTTTAGATGACCCCCCCC / ACGAGAACUUCAAAGCUUAGAUACCCUGGAGG / GGUGUUAAGUCUGGUUUCCCUCCAGGGUAUCUAAGCUUUGAAG [S10-60 ssDNA + S1 crRNA + NTR+1]” the binding signal (% of full activity) ([1]; 100 nM LdCsm, 500 nM NTR+1) was 70.
“ACTATAGGGAGAATAGAATGCCCCCATTATACAATATCTACGTTTTAGATGACCCCCCCC / ACGAGAACUUCAAAGCUUAGAUACCCUGGAGG / UGUUAAGUCUGGUUUCCCUCCAGGGUAUCUAAGCUUUGAA [S10-60 ssDNA + S1 crRNA + PTR (S1-40)]” was tested, and the binding signal (% of CTR-LdCsm) ([1]; 100 nM LdCsm, 500 nM PTR) was 55, the binding signal (fold vs non-homologous RNA) ([1]; 100 nM LdCsm, 500 nM PTR) was 2 and the binding signal (fold vs non-homologous RNA) [2] was 3.
“ACTATAGGGAGAATAGAATGCCCCCATTATACAATATCTACGTTTTAGATGACCCCCCCC / ACGAGAACUUCAAAGCUUAGAUACCCUGGAGG / GGUGUUAAGUCUGGUUUCCCUCCAGGGUAUCUAAGCUUUGAAA [S10-60 ssDNA + S1 crRNA + CTR+1]” was tested, and the binding signal (% of full activity) ([1]; 100 nM LdCsm, 500 nM CTR+1) was 90.
